Test results reported in PMC10767048 (Nature Communications, 2024).

Target: GPC trimer Enc nanoparticle (Lassa GPC trimer-SpyTag coupled to encapsulin-SpyCatcher) (Lassa virus, Mouse/Sierra …, stabilised)
Assay: BLI
Conditions: both partners purified

B1: Fab of human LASV neutralizing antibody 37.7H (Fab, V domains shown)
VH: EVQLVQSGGGLVKAGGSLRLSCAASGFTFSTYSMNWIRQAPGKGLEWVASISSRSGSHINYVDSVKGRFTISRDNARDLLYLQMNSLRVDDSALYYCARDRRSGTSPLPLDVWGQGTTVTVFS
VL: QSALTQPASVSGSPGQSITISCTGTGSDIGGYNFVSWYQQYPGKAPKLIIYEVRIRASGVSNRFSGSKSGNTASLTISGLQAEDEADYYCNSYSIHSPWVFGGGTKLTVL
  Kd: < 1 pM
  koff: < 1e-07 s⁻¹
  kon: 81100 M⁻¹ s⁻¹
